Source: the supplement of paper PMC10567573

B1: PSMB5 addD (peptide)
chain: DGWIRVSSDNVADLHEKYSGSTPD
B2: TRPA1 addM (peptide)
chain: EQRNSRWNTVLRAVKAKTHHLEPM
B3: POLD2 addM (peptide)
chain: CQPISFSGFGAEDDDLGGLGLGPM
B4: TRPA1 addD (peptide)
chain: EQRNSRWNTVLRAVKAKTHHLEPD
B5: SNF8 addD (peptide)
chain: LPALFTDLYSQEITAEEAREALPD
B6: BEX2 addM (peptide)
chain: HSLRAVSTDPPHHDHHDEFCLMPM
B7: BEX2 addD (peptide)
chain: HSLRAVSTDPPHHDHHDEFCLMPD
B8: POLD2 addD (peptide)
chain: CQPISFSGFGAEDDDLGGLGLGPD
B9: PSMB5 addM (peptide)
chain: DGWIRVSSDNVADLHEKYSGSTPM
B10: SNF8 addM (peptide)
chain: LPALFTDLYSQEITAEEAREALPM

Test: protein stability index of a GFP-peptide fusion (GPS, HEK-293T) (PSI 1-6); higher = more stable
Conditions: parent: NP_002788.1; c terminus: native
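Note: lentivirally expressed fusion library, cells FACS-sorted into six equal-sized GFP/DsRed ratio bins, PSI computed from sequencing read fractions per bin weighted by bin number.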

Point of comparison: B1, protein stability index 4.37. Against it:
- B9 — lower, 2.89

Same assay, conditions: parent: NP_015628.1; c terminus: native

Point of comparison: B2, protein stability index 4.79. Against it:
- B4 — lower, 3.91

Same assay, conditions: parent: NP_006221.1; c terminus: native

Point of comparison: B3, protein stability index 2.38. Against it:
- B8 — lower, 2.2

Same assay, conditions: parent: NP_009172.2; c terminus: native

Point of comparison: B5, protein stability index 5.09. Against it:
- B10 — lower, 3.04

Same assay, conditions: parent: NP_116010.1; c terminus: native

Point of comparison: B7, protein stability index 4.42. Against it:
- B6 — lower, 3.52
